B1: CDC14A (parent)
chain: LNLAMVYRYCCKLNKKLKSYSLSR
B2: ADAMTS4 (parent)
chain: HVDPEEPWSPCSARFITDFLDNGY

Variants of: B1
Test: protein stability index of a GFP-peptide fusion (GPS, HEK-293T) (PSI 1-6); higher = more stable
Conditions: c terminus: a fixed tail appended
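Note: lentivirally expressed fusions sorted by FACS into six bins by GFP to DsRed ratio, PSI derived from sequencing read proportions per bin multiplied by bin number.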

Protein stability index of substitutions, site by site:
L3: F 3.38; P 3.05; R 2.17; S 2.2; H 1.8; N 1.89; G 4.11; A 2.74; Q 2.61; T 2.79; E 2.32; D 2.29; V 2.59; C 4; M 2.88; I 2.02
L22: S 3.58; Y 4.37; A 4.08; P 2.24; V 1.04; H 3.37; R 2.31; C 2.92; G 3.46; W 2.76; F 3.36; I 3.6
L13: F 3.31; S 1.8; Q 3.27; C 2.79; I 2.69; G 2.49; P 1.2; A 2.92; N 1.89; M 3.6; K 1.56; R 3.08; T 2.08
R8: T 2.03; P 2.09; G 3.71; V 3.11; N 1.97; L 3.17; E 2.43; Y 2.67; C 3.52; I 2.62
A4: V 2.74; Y 2.91; E 2.43; D 4.12; F 3.74; H 3.55; M 3.12; Q 4.07; P 3.19; I 2.37
S21: E 3.12; P 3.64; Y 2.62; Q 2.86; V 4.29; F 2.38; T 2.92; N 2.51; A 3.27; W 2.86; I 3.96; H 2.13; M 3.42
K12: I 3.53; S 2.58; M 2.19; R 2.13; L 2.5; V 2.59; G 1.89; E 1.5; F 2.18; P 2.87; A 2.1; T 2.55; Y 2.51; D 1.81; H 1.73
S19: A 3.52; M 3.69; G 2.5; H 2.3; C 2.98; Q 1.51; D 2.28; L 2.5; P 2.75; R 3.44
S23: K 3.42; Q 2.53; A 3.5; T 3.09; H 2.36; R 4.26; L 2.37; C 2.49; G 2.2; E 4.66; F 2.69
K16: W 2.81; E 1.9; S 2.33; H 3.33; L 2.13; F 1.63; I 1.62; T 3.67; N 2.32; P 2.42; M 2.77; D 2.56; R 3.33
Y7: N 2.46; A 1.85; Q 2.71; T 3.96; F 3.48; M 1.91; L 3.34; I 3.1; K 2.13
C10: N 1.95; K 1.65; Y 4.25; V 3.25; H 3.62; W 3.64; E 1.98; T 2.32; Q 2.8; M 2.89; D 2.31; I 4.27; A 2.41
R24: M 2.37; G 2.21; V 3.52; N 3.15; C 3.05; F 2.97; W 3.11; Y 3.41; E 2.72; D 3.64; K 2.13; T 1.99; Q 4.16; P 2.59
Y20: N 2.16; H 3.02; W 3.32; K 3.24; Q 3.1; I 3.15; P 4.23; V 2.52; R 2.17
C11: N 3.24; M 2.74; P 1.97; Y 2.63; A 2.73; G 4.89; I 3.23; L 2.64; R 2.64; H 3.15; S 3.77; V 2.45; E 1.62
M5: F 2.8; G 3.92; C 4.65; T 3.46; N 3.77; V 2.54; D 3.92; L 2.57; K 3.87; H 3.35; A 2.67; W 3.48
K15: A 2.87; P 2.32; E 3.47; L 3.39; C 4.37; H 3.69; F 2.81; V 3.04; T 2.62; N 2.31; Y 3.3; M 1.07
V6: C 3.05; W 3.43; A 3.5; I 3.28; G 1.73; R 2.78; H 2.03; K 2.39; L 2.01; S 2.5; M 2.72
L1: S 3.71; E 3.44; I 3.18; K 2.73; A 2.44; T 2.3; D 3.11; F 2.51; R 2.77
K18: T 3.6; Y 2.67; M 3.72; H 2.96; C 1.73; V 2.46; G 3.2; S 2.9; I 2.79; Q 1.97
Y9: N 2.03; A 2.3; V 2.44; I 2.02; K 3.54; S 2.19; M 1.81; P 1.41; H 2.48
N2: W 3.17; R 2.39; C 3.28; F 1.04; M 3.27; E 3.15; T 2.24
N14: D 2.8; R 3.97; S 2.35; C 3.38; H 3.21; Y 3.35; T 3.41; F 2.31; K 3.38; V 1.78; G 3.52; M 1.94; P 4.59
L17: R 2.78; F 2.64; N 2.54; H 2.21; I 2.95; S 2.17; K 2.24; E 1.69

Variants of: B2
Test: as above
Conditions: c terminus: a fixed tail appended

Protein stability index, by site and new letter:
D21: W 2.42; Y 1.33; T 1.96; V 2.2; S 1.73
Y24: I 2.05; K 1.94; V 1.73; T 2; S 1.81; F 2.17; C 1.39; H 1.9; D 1.75; R 1.96; L 1.84; N 2.21; E 2.01; Q 2.1; P 1.92; W 1.64; A 2.32; G 2.36; M 2.07
N22: K 1.57; I 2.52; Y 1.78; V 1.94; W 1.3; F 1.85; M 1.92; R 1.7; L 1.71; T 1.46; D 1.88; P 2.09; Q 2.09; E 2.19; H 1.62; G 2.07; A 1.8; C 2.35; S 1.47
G23: M 1.69; K 2.06; T 2.22; Q 1.65; I 2.05; F 2; D 2.24; W 1.82; Y 2.02; H 2.12; R 1.53; C 2.17; E 1.96; S 1.71; P 2.1; A 1.74; N 1.61; V 2.27; L 1.82

From the supplement of paper PMC10567573
